Experimental data from patent JP2021136920A.

What was measured:
[1] = target: Glycer−AGEs由来新規構造体修飾―ウシ血清アルブミン(GAL13−BSA) (bovine) (UniProt P02769); assay: SPR, Biacore T200; GAL13-BSA amine-coupled on CM5
[2] = target: グリセルアルデヒド由来AGEs含有ウシ血清アルブミン(Glycer−AGEs−BSA) (bovine) (UniProt P02769); assay: SPR, Biacore T200; Glycer-AGEs-BSA amine-coupled on CM5, antibody 0-400 nM
[3] = target: A−peakを架橋させたBSA(A−peak−BSA) (bovine) (UniProt P02769); assay: SPR, Biacore T200; A-peak-BSA amine-coupled on CM5 (72 RU), antibody 0.1953-50 nM, 1:1 binding model

| Kd [1] [nM] | Kd [2] [nM] | Kd [3] [nM] | Binder |
| --- | --- | --- | --- |
| 87.5 | 57.4 |  | 新規モノクローナル抗体SJ−5 (antibody, V domains shown) VH: EVMLVESGGRLVKPGGSLKLSCAASGFTFSSYGMSWVRQTPEKRLEWVATISGGGSYTYYPDSVKGRFTISRDNVKNNLYLQMSSLRSEDTALYYCARRGAYGDYGWFAYWGQGTLVTVSA VL: DIVLTQSPATLSVTPGDSVSLSCRASQSINNNLHWYQQKSHESPRLLIKCASQSISGIPSRFSGSGSGTDFTLSINSVETEDFGMYFCQQSNSWPLTFGAGTKLELK |
|  |  | 4.15 | 新規モノクローナル抗体PB−1 (antibody, V domains shown) VH: EVRLQQSGPELVKPGTSVKISCKASGYSFTGYYMHWVKQSPVKSLEWIGRIIPYNGATSYNQNFKDKASLTVDKSSRTAYMDLHSLTSEDSAVYYCARSRYYGRAPYYFDYWGQGTTLTVSS VL: DVVVTQTPLSLPVSLGDQASISCRSSQSIVHSNGNTYLEWYLQKPGQSPKLLIYKVSNRFSGVPDRISGSGSGTDFTLKISRVEAGDLGVYSCFQGSHVPFTFGSGTKLEIK |
